By kon is commonly meant the second-order rate constant of association.

For this assay, the target named is all the peptides, including the phosphorylated CTD peptide. The assay can be described thus: BLI; Octet RED, 24°; N-terminally biotinylated peptides immobilised on streptavidin biosensors; Ess1 in solution (3, 10, 30 μM); 20 mM Tris-HCl pH 8.0, 1 mg/mL BSA; no-peptide sensor subtracted; apparent dissociation constants (Kapp) from kinetic and equilibrium data, considering only the predominant faster-dissociating signal; for unphosphorylated peptides Kapp estimated from the signal at 30 μM Ess1.

B1: Recombinant S. cerevisiae Ess1 protein (enzyme)
chain: MPSDVASRTGLPTPWTVRYSKSKKREYFFNPETKHSQWEEPEGTNKDQLHKHLRDHPVRVRCLHILIKHKDSRRPASHRSENITISKQDATDELKTLITRLDDDSKTNSFEALAKERSDCSSYKRGGDLGWFGRGEMQPSFEDAAFQLKVGEVSDIVESGSGVHVIKRVG
In the case of B1, the kon is 17500 to 27100 M⁻¹ s⁻¹.

Source of the values: paper PMC3962490, “The Yeast Ess1 Prolyl Isomerase Controls Swi6 and Whi5 Nuclear Localization” (G3: Genes|Genomes|Genetics, 2014).
